The source of these data is article PMC6901522.

Targets include His49 (UniProt position 49, PGGVVHSFSHN); His53 (UniProt position 53, VHSFSHNVGPG); His87 (UniProt position 87, GTSEDHQHFTC); His89 (UniProt position 89, SEDHQHFTCTI).
Holding throughout (experiment): NMR
Common to all, as to settings: 298 K, 150 mM NaCl, 10 mM acetic acid, 10 mM sodium phosphate, the pH 7.4 point was taken from a sample in TBS, folded, oxidised (C63-C92 disulfide), ligand-free monomer, 215-356 µM protein

As for “Myeloid-derived growth factor (hMYDGF, C19orf10) (Homo sapiens)”, the pKa in the series with His49 stood at 6.4; with His53, 5.4; with His87, 6.0; with His89, 6.8.
